Data on 18 proteins can be found in patent US20250027068.

To fix the notation:
B1: PRT-368 (protein)
chain: MSQTEDSESLQRLRDIEDFQAEKKDQNVVYTKWLDGVDVKDHDFRKIVDGNIAYYATPLLNGRGWYDINKDFNRDNDKCAAAVAANMFHYWLDRNRDNVDRFLRQNPEKHGIIELPDGQLKLSDFLNTYESDDGYRDKSKLFDFISENFNGPVWTDKLLDNYINGYAYNYKYGRTIEDSTKNTSKINFFKEVFNEKILTNNHSIRNQNEFSVLLIEALYTGKAIGLSYGPAGLRHSLGHIISVWGADLDADGNVVAIYVTDSDDKKLTIGDERVGLKRYKISTDDEGRLRLTAYEETHNTGGQVRGLWTLDTGKQAWADYFDKTEQTGTDQAEQ
B2: PRT-370 (protein)
chain: B1 chain with I52S
B3: PRT-369 (protein)
chain: B1 chain with W65L, F210L, I215S
B4: PRT-337 (protein)
chain: MTITSVWTKGVTPPTPEDFRKNNEDVLHAPYLANQGWYDITKAFDGKDNLLCGAATAGNMLHWWFDQNKEEIERYLKKHPEKQKIIFNNQELFDVKAAIDTKDSQTNSKLFNYFRDKAFPNLSARQLGVMPDLVLDMFINGYYLNLGKTQSTDVNRPYQDKDKRGGIFDAVFTRGDQTTLLTARHDLKNKGLNEISDLIKQELTEGKALALSHTYANVSINHVINLWGADFDAEGNLEAIYVTDSDANASIGMKKYFVGRNAHGKVAISAKKIEGDNIGAQVLGLFTLSTGQDIWQKLS
B5: PRT-345 (protein)
chain: B4 chain with K21E, N112D, N236E, A249P
B6: PRT-338 (protein)
chain: B4 chain with K21E, T290L
B7: PRT-339 (protein)
chain: B4 chain with K21E, N88G, N112D, I294Q
B8: PRT-352 (protein)
chain: MSQTEDSESLQRLRDIEDFQAEKKMQNVVYTKWLDGVDVKDHDFRKIVDGNSAYYATPLLNGRGFYDINKDFNRDSDKCAAAVAANMFHYWLDINRDNVDRFLRQNPEKHGIIELPDGQLKLSDFLNTYESDHGYRDKSKLFDFISENFNGPVWTDKLLDNYINGYAYNSKYGRTIEDPTKNTSKINFFKEVFNEKILTNNHSIRNQNEFSVLLIEALYTGKAIGLSYGPAGLRHGLGHIISVWGADLDADGNVVAIYVTDSDDKKLTIGDERVGLKRYKISTDDENRLRLTAYEETHNTGGQIRGLWTLDTGKYAWADYFDKTEQTGTDQAEQ
B9: PRT-347 (protein)
chain: B8 chain with K24E, F65W, E147N, S170Y, I215S, G236S, I304V
B10: PRT-363 (protein)
chain: B1 chain with K24E, D25K, I52S, N76S, Y170S, S179P, S236G
B11: PRT-360 (protein)
chain: B1 chain with I52S, N76S, S179P
B12: PRT-346 (protein)
chain: B8 chain with K24E, E147N, S170Y, I215S, G236S, I304V
B13: PRT-371 (protein)
chain: B1 chain with D25K, I52S, W65F, V304I
B14: PRT-361 (protein)
chain: B1 chain with D25K, I52S, W65F, N76S, S179P, V304I
B15: PRT-355 (protein)
chain: B8 chain with S52E, S170Y, T175L, F210L, I215S, L233T, G236S
B16: PRT-353 (protein)
chain: B8 chain with K24E, F65W, I304V
B17: PRT-362 (protein)
chain: B8 chain with M25K, I94R, H133D, N287G, Y315Q
B18: PRT-354 (protein)
chain: B8 chain with S52E, S170Y, F210L, I215S, G236S

Numbering of substitutions follows the chain as printed.

The target of this data set is pooled human IgG (human IgG1,2,3 and 4).
Regarding B1, the Enzyme Activity Endpoint Assay (purified): Fab′2 came out at 0 ng/µL, the Enzyme Activity Endpoint Assay (purified): Fc is 3 ng/µL, the Enzyme Activity Endpoint Assay (purified): IgG turned out to be 0 ng/µL and the Enzyme Activity Endpoint Assay (purified): scIgG stood at 0 ng/µL.

B2 gave an Enzyme Activity Endpoint Assay (purified): Fab′2 of 654 ng/µL, an Enzyme Activity Endpoint Assay (purified): Fc of 348 ng/µL, an Enzyme Activity Endpoint Assay (purified): IgG of 0 ng/µL and an Enzyme Activity Endpoint Assay (purified): scIgG of 288 ng/µL.

In turn, B3 returned an Enzyme Activity Endpoint Assay (purified): Fab′2 of 259 ng/µL, an Enzyme Activity Endpoint Assay (purified): Fc of 284 ng/µL, an Enzyme Activity Endpoint Assay (purified): IgG of 123 ng/µL and an Enzyme Activity Endpoint Assay (purified): scIgG of 445 ng/µL.

Protein B4 came in with an Enzyme Activity Endpoint Assay (purified): Fab′2 of 0 ng/µL, an Enzyme Activity Endpoint Assay (purified): Fc of 74 ng/µL, an Enzyme Activity Endpoint Assay (purified): IgG of 38 ng/µL and an Enzyme Activity Endpoint Assay (purified): scIgG of 259 ng/µL.

For the protein B5, the Enzyme Activity Endpoint Assay (purified): Fab′2 worked out at 61 ng/µL, the Enzyme Activity Endpoint Assay (purified): Fc turned out to be 248 ng/µL, the Enzyme Activity Endpoint Assay (purified): IgG was determined as 123 ng/µL and the Enzyme Activity Endpoint Assay (purified): scIgG is 772 ng/µL.

In the case of B6, the Enzyme Activity Endpoint Assay (purified): Fab′2 was determined as 766 ng/µL, the Enzyme Activity Endpoint Assay (purified): Fc amounted to 203 ng/µL, the Enzyme Activity Endpoint Assay (purified): IgG is 0 ng/µL and the Enzyme Activity Endpoint Assay (purified): scIgG was found to be 287 ng/µL.

The protein B7 displayed an Enzyme Activity Endpoint Assay (purified): Fab′2 of 721 ng/µL, an Enzyme Activity Endpoint Assay (purified): Fc of 167 ng/µL, an Enzyme Activity Endpoint Assay (purified): IgG of 0 ng/µL and an Enzyme Activity Endpoint Assay (purified): scIgG of 288 ng/µL.

On to B8, for which the Enzyme Activity Endpoint Assay (purified): Fab′2 is 229 ng/µL, the Enzyme Activity Endpoint Assay (purified): Fc was 302 ng/µL, the Enzyme Activity Endpoint Assay (purified): IgG was determined as 281 ng/µL and the Enzyme Activity Endpoint Assay (purified): scIgG was 599 ng/µL.

The protein B9 gave an Enzyme Activity Endpoint Assay (purified): Fab′2 of 769 ng/µL, an Enzyme Activity Endpoint Assay (purified): Fc of 397 ng/µL, an Enzyme Activity Endpoint Assay (purified): IgG of 0 ng/µL and an Enzyme Activity Endpoint Assay (purified): scIgG of 309 ng/µL.

B10 returned an Enzyme Activity Endpoint Assay (purified): Fab′2 of 838 ng/µL, an Enzyme Activity Endpoint Assay (purified): Fc of 462 ng/µL, an Enzyme Activity Endpoint Assay (purified): IgG of 0 ng/µL and an Enzyme Activity Endpoint Assay (purified): scIgG of 354 ng/µL.

B11 came in with an Enzyme Activity Endpoint Assay (purified): Fab′2 of 89 ng/µL, an Enzyme Activity Endpoint Assay (purified): Fc of 241 ng/µL, an Enzyme Activity Endpoint Assay (purified): IgG of 191 ng/µL and an Enzyme Activity Endpoint Assay (purified): scIgG of 684 ng/µL.

The protein B12 came in with an Enzyme Activity Endpoint Assay (purified): Fab′2 of 607 ng/µL, an Enzyme Activity Endpoint Assay (purified): Fc of 217 ng/µL, an Enzyme Activity Endpoint Assay (purified): IgG of 0 ng/µL and an Enzyme Activity Endpoint Assay (purified): scIgG of 246 ng/µL.

The protein B13 came in with an Enzyme Activity Endpoint Assay (purified): Fab′2 of 623 ng/µL, an Enzyme Activity Endpoint Assay (purified): Fc of 373 ng/µL, an Enzyme Activity Endpoint Assay (purified): IgG of 0 ng/µL and an Enzyme Activity Endpoint Assay (purified): scIgG of 295 ng/µL.

B14 showed an Enzyme Activity Endpoint Assay (purified): Fab′2 of 86 ng/µL, an Enzyme Activity Endpoint Assay (purified): Fc of 243 ng/µL, an Enzyme Activity Endpoint Assay (purified): IgG of 130 ng/µL and an Enzyme Activity Endpoint Assay (purified): scIgG of 753 ng/µL.

As to B15, the Enzyme Activity Endpoint Assay (purified): Fab′2 came to 952 ng/µL, the Enzyme Activity Endpoint Assay (purified): Fc is 500 ng/µL, the Enzyme Activity Endpoint Assay (purified): IgG came to 0 ng/µL and the Enzyme Activity Endpoint Assay (purified): scIgG came to 367 ng/µL.

The protein B16 had an Enzyme Activity Endpoint Assay (purified): Fab′2 of 101 ng/µL, an Enzyme Activity Endpoint Assay (purified): Fc of 259 ng/µL, an Enzyme Activity Endpoint Assay (purified): IgG of 189 ng/µL and an Enzyme Activity Endpoint Assay (purified): scIgG of 767 ng/µL.

B17 displayed an Enzyme Activity Endpoint Assay (purified): Fab′2 of 720 ng/µL, an Enzyme Activity Endpoint Assay (purified): Fc of 225 ng/µL, an Enzyme Activity Endpoint Assay (purified): IgG of 0 ng/µL and an Enzyme Activity Endpoint Assay (purified): scIgG of 299 ng/µL.

Protein B18 registered an Enzyme Activity Endpoint Assay (purified): Fab′2 of 618 ng/µL, an Enzyme Activity Endpoint Assay (purified): Fc of 213 ng/µL, an Enzyme Activity Endpoint Assay (purified): IgG of 0 ng/µL and an Enzyme Activity Endpoint Assay (purified): scIgG of 233 ng/µL.
